The record followed here is patent US20140194025A1, “Production of Highly Concentrated Solutions of Self-Assembling Proteins” (Freudenberg Forschungsdienste KG, priority 2010, published 2014).

The nature of this data set: Solubility of the hydrophobic protein and its fragments. The data set is classed as physicochemical.

B1: R16 protein: synthetic combination protein formed from silk proteins and resilins, polypeptide sequence SEQ ID NO: 4 (protein)
chain: MASMTGGQQMGRGSMGPGSSAAAAAAAASGPGQGQGQGQGQGGRPSDTYGPGSSAAAAAAAASGPGQGQGQGQGQGGRPSDTYGPGSSAAAAAAAASGPGQGQGQGQGQGGRPSDTYGPGSSAAAAAAAASGPGQGQGQGQGQGGRPSDTYGPGSSAAAAAAAASGPGQGQGQGQGQGGRPSDTYGPGSSAAAAAAAASGPGQGQGQGQGQGGRPSDTYGPGSSAAAAAAAASGPGQGQGQGQGQGGRPSDTYGPGSSAAAAAAAASGPGQGQGQGQGQGGRPSDTYGPGSSAAAAAAAASGPGQGQGQGQGQGGRPSDTYGPGSSAAAAAAAASGPGQGQGQGQGQGGRPSDTYGPGSSAAAAAAAASGPGQGQGQGQGQGGRPSDTYGPGSSAAAAAAAASGPGQGQGQGQGQGGRPSDTYGPGSSAAAAAAAASGPGQGQGQGQGQGGRPSDTYGPGSSAAAAAAAASGPGQGQGQGQGQGGRPSDTYGPGSSAAAAAAAASGPGQGQGQGQGQGGRPSDTYGPGSSAAAAAAAASGPGQGQGQGQGQGGRPSDTYG
Take B1: the solubility in water result is listed as “about 1%”.
